Laboratory results from patent publication CN107840889A (SHANGHAI JIBEI BIOLOGICAL TECH CO LTD, dated 2018).
Where “and” joins values, the source holds several entries; their conditions need not be identical. Equal values may be shown once.

Molecular target: T1, CD123-his-biotin抗原 (Homo sapiens (Human), UniProt P26951 19-305, biotin label (site not stated))
T1 construct: Bought from SinoBiological and biotin-labelled; also called CD123-Biotin; CD123抗原; not shown: his tag
T1 sequence: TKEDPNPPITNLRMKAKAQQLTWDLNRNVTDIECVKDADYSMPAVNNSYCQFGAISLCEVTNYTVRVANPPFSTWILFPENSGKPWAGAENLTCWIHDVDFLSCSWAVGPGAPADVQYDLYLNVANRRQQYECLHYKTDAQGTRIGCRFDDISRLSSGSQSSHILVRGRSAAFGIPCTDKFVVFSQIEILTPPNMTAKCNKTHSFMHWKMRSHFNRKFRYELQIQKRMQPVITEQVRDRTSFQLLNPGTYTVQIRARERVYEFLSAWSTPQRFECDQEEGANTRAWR
Experiment: BLI (Octet RED96), CD123-Biotin on AR2G sensor, scFv periplasmic extract as analyte
Set-up: 响应: unit not given here

Binder | koff | 响应
scFv 26292 (scFv, V domains shown, Tested as an scFv in periplasmic extract of TG1 (pCANTAB 5E vector)) VH: QVQLQQPGAELVRPGASVKLSCKASGYTFTSYWMNWVKQRPDQGLEWIGRIDPYDSETHYNQKFKDKAILTVDKSSSTAYMQLSSLTSEDSAVYYCARGNWDDYWGQGTTLTVSS VL: DVQITQSPSYLAASPGETITINCRASKSISKDLAWYQEKPGKTNKLLIYSGSTLQSGIPSRFSGSGSGTDFTLTISSLEPEDFAMYYCQQHNKYPYTFGGGTKLEIK | 0.000206 s⁻¹ and 0.00021 s⁻¹ and 0.000209 s⁻¹ and 0.000207 s⁻¹ | –
4C3 (scFv, V domains shown) VH: QVQLQQPGAELVRPGASVKLSCKASGYTFTQYWMNWVKQRPDQGLEWIGRIDPFDSETHYNLQFKDKAILTVDKSSSTAYMQLSSLTSEDSAVYYCARGNWDDYWGQGTTLTVSS VL: DVQITQSPSYLAASPGETITINCRASKSISKDLAWYQEKPGKTNKLLIYSGSTLQSGIPSRFSGSGSGTDFTLTISSLEPEDFAMYYCQQHNKYPYTFGGGTKLEIK | 0.000322 s⁻¹ | 0.083
4A6 (scFv, V domains shown) VH: QVQLQQPGAELVRPGASVKLSCKASGYTFQSYWMNWVKQRPDQGLEWIGRIDPYDSETHYNQKFKDKAILTVDKSSSTAYMQLSSLTSEDSAVYYCARGNWDDYWGQGTTLTVSS VL: DVQITQSPSYLAASPGETITINCRASKSISKDLAWYQEKPGKTNKLLIYSGSTLQSGIPSRFSGSGSGTDFTLTISSLEPEDFAMYYCQQHNKYPYTFGGGTKLEIK | 0.000323 s⁻¹ | 0.106
6G9 (scFv, V domains shown) VH: QVQLQQPGAELVRPGASVKLSCKASGYTFTSYWMNWVKQRPDQGLEWIGRIDPYDSETHYNQKFKDKAILTVDKSSSTAYMQLSSLTSEDSAVYYCARGNWDDYWGQGTTLTVSS VL: DVQITQSPSYLAASPGETITINCCASNSINKDLIWYQEKPGKTNKLLIYSGSTLQSGIPSRFSGSGSGTDFTLTISSLEPEDFAMYYCQQHNKYPYTFGGGTKLEIK | 0.000318 s⁻¹ | 0.163
2C5 (scFv, V domains shown) VH: QVQLQQPGAELVRPGASVKLSCKASGYTFTQYWMNWVKQRPDQGLEWIGRIDPYDSETHYNQKFKDKAILTVDKSSSTAYMQLSSLTSEDSAVYYCARSQVSDYWGQGTTLTVSS VL: DVQITQSPSYLAASPGETITINCRASKSISKDLAWYQEKPGKTNKLLIYSGSTLQSGIPSRFSGSGSGTDFTLTISSLEPEDFAMYYCQQHNKYPYTFGGGTKLEIK | 0.000502 s⁻¹ | 0.177
8A7 (scFv, V domains shown, 31 is used here; also called 抗体8A7) VH: QVQLQQPGAELVRPGASVKLSCKASGYTFTSYWMNWVKQRPDQGLEWIGRIDPYDSETHYNQKFKDKAILTVDKSSSTAYMQLSSLTSEDSAVYYCARGNWDDYWGQGTTLTVSS VL: DVQITQSPSYLAASPGETITINCRASKSISKDLAWYQEKPGKTNKLLIYSGSTLQSGIPSRFSGSGSGTDFTLTISSLEPEDFAMYYCQQTNRYPYTFGGGTKLEIK | 0.000178 s⁻¹ | 0.471
4D1 (scFv, V domains shown, also called 抗体4D1) VH: QVQLQQPGAELVRPGASVKLSCKASGYQFTSYWMNWVKQRPDQGLEWIGRIDPYDSETHYNQKFKDKAILTVDKSSSTAYMQLSSLTSEDSAVYYCARGNWDDYWGQGTTLTVSS VL: DVQITQSPSYLAASPGETITINCRASKSISKDLAWYQEKPGKTNKLLIYSGSTLQSGIPSRFSGSGSGTDFTLTISSLEPEDFAMYYCQQHNKYPYTFGGGTKLEIK | 0.000198 s⁻¹ | 0.25
6G3 (scFv, V domains shown, also called 抗体6G3) VH: QVQLQQPGAELVRPGASVKLSCKASGYTFTSYWMNWVKQRPDQGLEWIGRIDPYDSETHYNQKFKDKAILTVDKSSSTAYMQLSSLTSEDSAVYYCARGNWDDYWGQGTTLTVSS VL: DVQITQSPSYLAASPGETITINCRASKSISKDLAWYQEKPGKTNKLLIYSSSRLSSGIPSRFSGSGSGTDFTLTISSLEPEDFAMYYCQQHNKYPYTFGGGTKLEIK | 0.000192 s⁻¹ | 0.425
2D2 (scFv, V domains shown, also called 抗体2D2) VH: QVQLQQPGAELVRPGASVKLSCKASGYKFQSYWMNWVKQRPDQGLEWIGRIDPYDSETHYNQKFKDKAILTVDKSSSTAYMQLSSLTSEDSAVYYCARGNWDDYWGQGTTLTVSS VL: DVQITQSPSYLAASPGETITINCRASKSISKDLAWYQEKPGKTNKLLIYSGSTLQSGIPSRFSGSGSGTDFTLTISSLEPEDFAMYYCQQHNKYPYTFGGGTKLEIK | 0.00014 s⁻¹ | 0.145
7F1 (scFv, V domains shown, also called 抗体7F1) VH: QVQLQQPGAELVRPGASVKLSCKASGYTFTSYWMNWVKQRPDQGLEWIGRIDPYDSETHYNQKFKDKAILTVDKSSSTAYMQLSSLTSEDSAVYYCARGNWDDYWGQGTTLTVSS VL: DVQITQSPSYLAASPGETITINCRASKSISKDLAWYQEKPGKTNKLLIYSGSTLQSGIPSRFSGSGSGTDFTLTISSLEPEDFAMYYCQQSNKYPYTFGGGTKLEIK | 2.47e-05 s⁻¹ | 0.486
5E10 (scFv, V domains shown) VH: QVQLQQPGAELVRPGASVKLSCKASGYTFTSYWMNWVKQRPDQGLEWIGRIDPYDSETHYNQKFKDKAILTVDKSSSTAYMQLSSLTSEDSAVYYCARGNWDDYWGQGTTLTVSS VL: DVQITQSPSYLAASPGETITINCRASKSISKDLAWYQEKPGKTNKLLIYSSSQRLSGIPSRFSGSGSGTDFTLTISSLEPEDFAMYYCQQHNKYPYTFGGGTKLEIK | 0.000254 s⁻¹ | 0.24
7G8 (scFv, V domains shown, also called 抗体7G8) VH: QVQLQQPGAELVRPGASVKLSCKASGYTFTSYWMNWVKQRPDQGLEWIGRIDPYDSETHYNQKFKDKAILTVDKSSSTAYMQLSSLTSEDSAVYYCARGNWDDYWGQGTTLTVSS VL: DVQITQSPSYLAASPGETITINCRASKSISKDLAWYQEKPGKTNKLLIYDASRRGSGIPSRFSGSGSGTDFTLTISSLEPEDFAMYYCQQHNKYPYTFGGGTKLEIK | 0.000127 s⁻¹ | 0.463
3F8 (scFv, V domains shown) VH: QVQLQQPGAELVRPGASVKLSCKASGYTFTQYWMNWVKQRPDQGLEWIGRIDPYDSETHYNQKFKDKAILTVDKSSSTAYMQLSSLTSEDSAVYYCARGISQDFWGQGTTLTVSS VL: DVQITQSPSYLAASPGETITINCRASKSISKDLAWYQEKPGKTNKLLIYSGSTLQSGIPSRFSGSGSGTDFTLTISSLEPEDFAMYYCQQHNKYPYTFGGGTKLEIK | 0.000558 s⁻¹ | 0.207
5B1 (scFv, V domains shown) VH: QVQLQQPGAELVRPGASVKLSCKASGYTFTSYWMNWVKQRPDQGLEWIGRIDPYDSETHYNQKFKDKAILTVDKSSSTAYMQLSSLTSEDSAVYYCARGNWDDYWGQGTTLTVSS VL: DVQITQSPSYLAASPGETITINCRASKSISKDLAWYQEKPGKTNKLLIYSGSTLQSGIPSRFSGSGSGTDFTLTISSLEPEDFAMYYCQQHNRYPYTFGGGTKLEIK | 0.00012 s⁻¹ | 0.422
